Measurements published in patent US20100260805A1 (CIRCASSIA, published 2010).
Like-named read-outs stand apart in the source and are kept apart here.

Experiments:
[1] = target: T1, DQA1*0102/DQB1*0602 (human, UniProt P01920 33-230, limits assumed); experiment: competitive MHC class II binding assay; competitor: control peptide Human Insulin B 1-15
T1 construct: human MHC class II allotype
T1 MHC II alpha: not shown
T1 MHC II beta: not shown

[2] = target: T2, HLA-DRB1*1501 (human); experiment: competitive MHC class II binding assay; competitor: control peptide Human myelin basic protein 85-99
T2 construct: human MHC class II allotype

[3] = target: T3, HLA-DRB1*0101 (human); experiment: competitive MHC class II binding assay; competitor: control peptide Influenza haemagglutinin 307-319;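 note: each peptide was tested for its capacity to displace a known reference binder from human MHC class II allotypes, and its IC50 is expressed relative to that of the reference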
T3 construct: human MHC class II allotype

[4] = target: T4, HLA-DRB1*1101 (human); experiment: as above
T4 construct: human MHC class II allotype

[5] = target: T5, HLA-DRB1*0401 (human); experiment: as above
T5 construct: human MHC class II allotype

[6] = target: T6, HLA-DRB1*0701 (human); experiment: as above
T6 construct: human MHC class II allotype

[7] = target: T7, HLA-DRB1*0701 (human)
T7 chain 1: not shown
T7 chain 2: not shown

[8] = target: T8, HLA-DRB1*1501 (human)
T8 chain 1: not shown
T8 chain 2: not shown

[9] = target: T9, HLA-DRB1*1101 (human)
T9 chain 1: not shown
T9 chain 2: not shown

[10] = target: T10, DQA1*0102/DQB1*0602 (human), P01920
T10 chain 1: not shown
T10 chain 2: not shown

[11] = target: T11, HLA-DRB1*0301 (human); experiment: competitive MHC class II binding assay; competitor: control peptide Myco. tuberculosis/leprae hsp 65 2-16
T11 construct: human MHC class II allotype

[12] = target: T12, HLA-DRB1*1301 (human); experiment: competitive MHC class II binding assay; competitor: control peptide HLA-DQB1*0603 21-36
T12 construct: human MHC class II allotype

[13] = target: T2, HLA-DRB1*1501; experiment: competitive MHC class II binding assay, high stringency screen; competitor: control peptide Myelin Basic Protein 85-99

DTVRAEMTKVLAP [HDM49]
ratio of IC50 to that of the control peptide [1]: 1.7 ratio
ratio of IC50 to that of the control peptide [2]: 671 ratio

KPFQLEAVFEANQNTK [HDM21A]
ratio of IC50 to that of the control peptide [3]: 200 ratio
ratio of IC50 to that of the control peptide [4]: 10.3 ratio
ratio of IC50 to that of the control peptide [5]: 52.2 ratio

REALAQTHSAIAVI [HDM09A]
ratio of IC50 to that of the control peptide [4]: 21.1 ratio
ratio of IC50 to that of the control peptide [6]: 0.49 ratio
ratio of IC50 to that of the control peptide [2]: 200 ratio

CIIHRGKPFQLEA (modifications not checked) [HDM20]
ratio of IC50 to that of the control peptide [7]: 1.1
ratio of IC50 to that of the control peptide [8]: 242
ratio of IC50 to that of the control peptide [9]: 28
ratio of IC50 to that of the control peptide [10]: 2.37

DGLEVDVPGIDPNACH (purity 66.7%) [HDM23A]
ratio of IC50 to that of the control peptide [1]: 0.76 ratio
ratio of IC50 to that of the control peptide [11]: 347 ratio

RTVTPIRMQGGCG [HDM02]
ratio of IC50 to that of the control peptide [1]: 0.03 ratio
ratio of IC50 to that of the control peptide [2]: 80 ratio

KPFQLEAVFEANQNT [HDM21]
ratio of IC50 to that of the control peptide [3]: 92 ratio
ratio of IC50 to that of the control peptide [4]: 11.7 ratio
ratio of IC50 to that of the control peptide [5]: 11.2 ratio

RGKPFQLEAVFEANQNT [HDM21B]
ratio of IC50 to that of the control peptide [3]: 13.5 ratio
ratio of IC50 to that of the control peptide [4]: 4.1 ratio
ratio of IC50 to that of the control peptide [5]: 0.78 ratio

LDMRNIQVRGLKQ [HDM33]
ratio of IC50 to that of the control peptide [4]: 41.5 ratio
ratio of IC50 to that of the control peptide [6]: 46.5 ratio
ratio of IC50 to that of the control peptide [12]: 263 ratio

IDLRQMRTVTPIR [HDM01]
ratio of IC50 to that of the control peptide [6]: 16 ratio
ratio of IC50 to that of the control peptide [11]: 19.2 ratio

DGVLACAIATHAKIR [HDM26A]
ratio of IC50 to that of the control peptide [3]: 42.3 ratio
ratio of IC50 to that of the control peptide [6]: 16.3 ratio
ratio of IC50 to that of the control peptide [1]: 0.61 ratio

B1: Fel d 1 peptide EQVAQYKALPVVLENA (peptide)
peptide: EQVAQYKALPVVLENA
notes: said to have been tested in an earlier study
ratio of IC50 to that of the control peptide [13]: 0.97 ratio

RNIQVRGLKQMKRVG [HDM34]
ratio of IC50 to that of the control peptide [4]: 3.38 ratio
ratio of IC50 to that of the control peptide [12]: 3.7 ratio
ratio of IC50 to that of the control peptide [2]: 769 ratio

TAIFQDTVRAEMTK [HDM48]
ratio of IC50 to that of the control peptide [4]: 13.6 ratio
ratio of IC50 to that of the control peptide [6]: 15.7 ratio
ratio of IC50 to that of the control peptide [11]: 211 ratio
